Target: human prion protein (hPrP), amino acid residues 23-230 (human) (UniProt P04156)
Assay: high-speed atomic force microscopy (HS-AFM)

“human prion protein (hPrP), amino acid residues 23-230, P04156 23-230 (domain or fragment; other documents disagree on this pair)” was tested, and the stoichiometry N was 6.
